Reference: the nanobody polyreactivity screen of Harvey et al. (2022)

Assay: yeast display, Sf9 membrane polyspecificity reagent, FACS + sequencing; frameworks hold sequencing errors
Outline: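 Galactose-induced (36–48 hours) yeast carrying a synthetic nanobody display library were exposed to 10% biotinylated, detergent-solubilized Sf9 membrane reagent at 4 °C for 1 hour. FACS followed streptavidin microbead enrichment, using low and high (top ~1%) gates for expression (anti-HA) and reagent binding (streptavidin). Colony PCR, MiSeq 2 × 250 sequencing and CDR-length filtering followed. Labels for polyreactivity reflect the gate of origin.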

| Sequence | polyreactivity (PSR sort gate) |
| --- | --- |
| QVQVVESGGGLVQAGCSLRLSCAASGFTFRDYAMGWYRPAPGKERELVATITLRVGSTFYADSLKGRFTISRDNAKNTVYLQKNSLKPEDTAVYYCADEDSNVVAYDYWGQGTQVTVSS | low polyreactivity |
| QVQLVESGGGLVQAVGSLRLSCAASGSTFGKNAMGWYRQAPGKERELVAAISTSGTRSFYADSVKGRFTISRDTAKNTVYLQMNSLKPEDTAVYYCNAGRSSRAYYYWGQGTQVTVSS | high polyreactivity |
| QVQLVESGGGLVQAGGSLRLTCAASGFIFNHNAMGWYRQAPGKERELVAAISSGGRTYYADSVKGRFTISRDNAKNTVYLQMNSLKPEDTAVYYCAKDTKYSSQYGKYGYWGQGTQVTVSS | low polyreactivity |
| HVQLVESGGGLVQAGGSLRFSCAASVSTLRWNAMGWYRQAPAKEREMVAAITYSGGSTYYADSVKGLFTISRDNAKNTVYLQMNSLKPEDTAVYYCAADSYRYRPGYGPVLYDYWGQGTQVTVSS | high polyreactivity |
| QVQLVESGGGLVQAGGSLRLSCAASGRTFRGYAMGWYRQAPGKERELVAAISVTGSSTNYADSVKGRFTISRDNAKNTVYLQMNSLKPEDTAVYYCNAKRVRYSLSYDYWGQGTQVTVSS | high polyreactivity |
| QVQLVESGGGLVQAGGSLRLSCAASGSTFFEYTMGWYRQAPGKEREFVADIRGRDGSTSYADSVKGRFTISRDNAKNTVYLQMNSLKPEDTAVYYCNADVTRWTRSPWPYTYDYWGQGTQVTVSS | low polyreactivity |
| QVQLVESGGGLVQAGGSLRLSCAASVNIFESYGMGWYRQAPGKERELVATINTSSGSTYYADSVKGRFTISRDNAKNTVYLQMNSLKPEDTAVYYCSAEWYPYPWGYGYSGQGTQVTVSS | low polyreactivity |
| QVQLVESGGGLVQAGGSLRLSCAASGSIFRKNAMGWYRQAPGKETELVAAITGSGRTTYADSVKGRFTISRDNAKNTVYLQMNSLKPEDTAVYYCAADVNYYQHRLYYWGQGTQVTVSS | low polyreactivity |
| QVQLVESGGGLVQAGGSLRLSFAASGRTFHGYAMGWYRQAPGKERELVARINWSDGRTYYADSVKGRFTISRDNAKNTVYLQMNSLKPEDTAVYYCAADKTVSYAPAWYYYWGQGTHVTVSS | low polyreactivity |
| QVQLVESGGGLVQAGGSLRLSCAASGFIFVGNDMGWYRQAPGKERELVAAISSGGTTNYADSVKGRFTISRDNAKNTVYLQMNSLIPEDTAVYYCAADYDYRQGYDSVHLDYWGQGTQVTVSS | low polyreactivity |
| QVQLVESGGGLVQAGGSLRLSCAASGSTLSKYGMGWYRQAPGKERDLVAAISYSSGSTYYADSVKGRFTISRDNAKNTVYLEMNSLKPEDTAVDYCAADRFRSLHYWTYDYWGQGTQVTVSS | high polyreactivity |
| QVQLQESGRRPGAAGGSPRMSCAASGNIFWVAVMGRYRQEPGQERELVASIGFGCTTYYADSVKCRFTISRDNAKNTVYLQMISLKPEDTAVYYCAAPHYDWGELDYWGQGTQVPVSS | low polyreactivity |
| QVQLVESGGGLVQAGGSLRLSCAASGSTFYTYAMGWYRQAPGKERELVAAISSGGGTTYADSVKGRFTISRDNAKNTVYLQMNSLKPEDTAVYYCAAVTRDYRNDRRRQRYYYWGQGTQVTVSS | high polyreactivity |
| QVQLVESGGGLVQAGGSLRLSCAASGRTFTSNAMGWYRQAPGKERELVAAITRGGSTYYADSVKGRFTISRDNAKNTVYLQMNSLKPEDTAVYYCNAGIYFRRKRYDYWGQGTQVTVSS | high polyreactivity |
| QVQLVESGGGIVQAGGSLRLSCAASGSTLQYNAMGWYRQAPGKERELVAAITRISGSTYYADSVKGRFTISRDNAKNTVYLQMNSLKPEHTAVYYCAAVSYYYSGYDYWGQGTEVTVSS | high polyreactivity |
| QVHLVESRGGLIQAGGSLRLSCAASGSLYVYNALGWYRQAPGKERELVAGITFIGGSTYYADSVKGRFTISRDNAKNTVYLQMNSLKPEDTAVCYSNADVAPGIFYGYDSWGQGTQVTVSS | low polyreactivity |
| QVQLVESVGGLVQAGGSLRLICAASGFIFWDYAMGSDRQAPGKERELVAAISDSGGDTYYAESVKGRFTISRDNAKNTVYLQMNSLKPEDTAVYFCAADLGRNYDYWGQGTQVTVLS | low polyreactivity |
| QVQLVESGGGLVQAGGSLRLSCAASGRTFYYNAMGWYRQAPGKERELVAAITSAGSTNYADSVKGRFTISRDNAKNTVYLQMNSLKPEDTAVYYCAARYFYRSAWGTFVKNDSWGQGTQVTVSS | high polyreactivity |
| QVQLVESGGGLVQAGGSLRLSCAASGGTFGKNAMGWYRQAPGKERELVAAITWSGARTFYADSVKGRFTISRDNAKNTVYLQMNSLKPEDTAVYYCAKGGTRFTRYEYWGQGTQVTVSS | high polyreactivity |
| QVQLVESGGGLVQAGGSLRLSCAASGFSFGIYAMGWYRQAPGKERELYADSVKGRFTISRDNAKNTVYLQMNSLKPEDTAVYYCAADYWYGAGLPHGTEFDYWGQGTQVTVSS | low polyreactivity |
| QVQLVESGGGLVQAGGSLRLSCAASGSIFGRNAMAWYRQAPGKERELVADIWNGGSTYYADSVNGRFTNSRDNAKNTVYFLMNSLKPEDTAVSYCNADADDDGRFGGYMKYDYWGQGTQVTVSS | low polyreactivity |
| QVQLVESGGGLVQAGGSLRLSCAASGSIFGYVMGWSRQAPGKERELVAAISSGGSTDYADSVKGRFTISRDNAKNTVYLQMNSLKPEDTAVYYCAADTDNGYTYYYWGQGTQVTVSS | low polyreactivity |

| Sequence | polyreactivity (PSR sort gate) |
| --- | --- |
| QVQLVESGGGLVQAGGSLRLSCAASGSILWLYVMGWYRQAPGKERELVATITSSGGSTYYADSVKGRFTISRDNAKNSVYLQMNSLKPEDTAVYYCAADYSRDEYDYWGQGTQVTVSS | low polyreactivity |
| QVQLQESGGGMVQAGGSLRLSCAASGYISWADNMAWYRQAPGKERELVAGIGYGSTTYYADSVKGRFTISRDNAKNTAYLQMNSLKPEDTSVYYCAVGWYRDTAYKYWGQGTQVTVSS | low polyreactivity |
| QVQLVESGGGLVQAGGSLRLSCAASGRIFYRNVMGWYRQAPGKERELVAAISYRGGSTSYADSVKGRFTISRDNAKNTVYLPMHILKPEDTAVDYCNAARIRPAYSDREYWGQGTQVTVSS | low polyreactivity |
| QFQLVESGGCLVQAGGSLRLSCAASGFIFLQYAMGWYRQAPGKETELGAAITSGGGTNYEDSVKGRFTISRDNAKNTVYLPMNSLKPEDTAGYNCAARTWPWVLGATQDDYWGQGTQVTVSS | low polyreactivity |
| QVQLVESGGGLVQAGGSLRLSCATSGFTLLKNAMGWYRQAPGKERELVAAIRQRGTTTYYADSVKGRFTISRDNAKNTVYLQMNSLKPEDTAVYSCNAGRRTGRYGYWGQGTQVTVSS | high polyreactivity |
| QVQLVESGGGLVQAGGSLRLSCAASGSTIVSYDMGWYRPAPGKDRELVAAITYDGDSTYYADSVKGRFTISRDNAKNTVYLQMNSLKPEDTAVYYCAAEPGDDLKFRGGFEYWGQGTQVTVSS | low polyreactivity |
| QVQLVESGGGLVQAGGSLRLICAASGFIFGNYAMGWYRQAPGKERELVATITWRGGSTYYADSVKGRFTISRDNAKNTVYLQMNSLKPEDTAVYYCARPYASYRSFYYYGYWGQGTQVTVSS | high polyreactivity |
| QVQLVESGGGLVQAGGSLRLICAASGRTLGYNARGWYRQAPGKETELVAAISYGGGGTYYADSVKGRFTISRDNAKNTVYLQMNSLKPEDTAVYYCAKPRAFVGYNHWGQGTQVTVSS | low polyreactivity |
| QVQLVESGGGLVQAGGRLSLSCAASGSTFSPYAMGWYRQAPGKEREFVADISWPGGTTYYADSVKGRFTISRDNAKNTVYLQMNSLKPEDTAVYYCAVTYWDYTFQITYEYWGQGTQVTVSS | low polyreactivity |
| QVQLVESGGGLVQAGGSLRLSCAASGRIFGLYAMGWYRQAPGKERELVATITRRAGSTYYADSVKGRFTISRDNAKNTVYLQMNSLKPEDTAVYYCAARSWANYDYWGQGTQVTVSS | high polyreactivity |
| QVQLVESGGGLVQAGGSLRLICAASGRIFGRNAMGWYRQARGKERELVAGISSGGTTDYADSVKGRFTISRDNAKNTVYLQMNSLKPEDTAVYYCNVDNDDSAFYAIFVLYDYWGEGTQVTVSS | low polyreactivity |
| QVQLVESGGGFVQAGGSLRLSCAASGSTFAYYAMGWDRQAPGKERELVAAITRGGRTYYADSVKGRFTISRDNPKNTVYLQMNSQKPDDTAVYYCNARKYTWYSSRFIRFDYWGQGTQVTVSS | high polyreactivity |
| QVQLVESGGGLVQAGGSLRLSCAASGSNFGYYPMGWYRQATGKERELVAAISWSDGSTYYADSVKGRFTISRDNAKNTVYLQMNSRKPEDTAVYYCAARFTPYITSDDGHYDYWGQGTQVTVSS | low polyreactivity |
| QVQLVESGGGLVQAGGSLRLSCAASGSTFGLYAMGWYRQAPGKERELVAAIRWSGASTYYADSVKGRFTISRDNAKNTVYLQMNSLKPEDTAVYYCARRALGPRRGIRYDYWGQGTQVTVSS | high polyreactivity |
| QVQLVESVGGLVQAGGSLRLSCAASGFIFYGYAMGWYRQAPGKERELVAAISRSGTSTYYADSVKGRFTISRDYAKNTVYLQMNSVKPDDTAVYYCDADYVGWKWGSRGAIYKHYYWGQGTQVTVSS | high polyreactivity |
| QVQLVESGAGLVQAGGSLRLSCAASGFTFYDYAMGWYRQAPGKERELVAAISRGGGSTYYADSVKGRFTISRDNAKNTVYLQMNSLKPEDTAVYYCNAALTRVSRFWGGDYYYWGQGTQVTVSS | high polyreactivity |
| QVQLVESGGGLVQAGGSLRLSCAASGSTFTRNAMGWYRQAPGKERELVAAITSSGGSTYYADSVKGRFTISRDNAKNTVYLQMNSLKPEDTAVYYCAAYPHRPRDRELDHWGQGTQVTVSS | low polyreactivity |
| QVQHVESGGGLVQAGGSLRLSCAASGSTIYWYAMGWYRQAPGKERELVAAISLSGGSTYYADSVKGRFTISRDNAKNTVYLQMNSLKPEDTAVYYCAARTSYYVYRHPSGRYDYWGQGTQVSVSS | low polyreactivity |
| QVQLVESGGGLVQAGGSLRLSCAASGFTFYANAMGWYRQAPGKERELVAAIDESGTSTNYADSVKGRFTISRDNAKNTVYLQMNSQKPEDTAVYYCAADGNSTGVYLDGGEGFAYDYWGHGTQVTVSS | low polyreactivity |
| QVHLQESGGGLEQAGGSPRLSCAASDNIFPDSVMCWYRQAPGKERELVATIGFGATTNYADSVKGRFTISRDNAKKTVFLQMNSLKPEDTAVYYCAADTLNYEYFCYWGQGTQVTVRS | low polyreactivity |
| QVQLVESGGGLVQAGGSLGLTCAASGFIFLDYTMVWYRQAPGIERELVATINASDGSTYYADSVKGRFTISRDNAKKTVYLQMNSLKPEDTAVYYCNTKVISRTSERRGNGFTRYDYWGQGTQVTVSS | low polyreactivity |
